Measured values: patent US20190119345A1 (published 2019)

B1: KYK-2 antibody (antibody, V domains shown)
VH: QVQLVESGGGLVKPGGSLRLSCAASGFTFSSYGMHWVRQAPGKGLEWVAFIRYDGSNKYYADSVKGRFTISRDNSKNTLYLQMNSLRAEDTAVYYCAKDRGLGDGTYFDYWGQGTTVTVSS
VL: QSALTQPASVSGSPGQSITISCSGSSSNIGNNAVNWYQQLPGKAPKLLIYYDDLLPSGVSDRFSGSKSGTSAFLAISGLQSEDEADYYCAAWDDSLNGPVFGGGTKLTVL
B2: human NKG2D (receptor)
chain: IPLTESYCGPCPKNWICYKNNCYQFFDESKNWYESQASCMSQNASLLKVYSKEDQDLLKLVKSYHWMGLVHIPTNGSWQWEDGSILSPNLLTIIEMQKGDCALYASSFKGYIENCSTPNTYICMQRTV
B3: KYK-1 antibody (antibody, V domains shown)
VH: EVQLVESGGGVVQPGGSLRLSCAASGFTFSSYGMHWVRQAPGKGLEWVAFIRYDGSNKYYADSVKGRFTISRDNSKNTLYLQMNSLRAEDTAVYYCAKDRFGYYLDYWGQGTLVTVSS
VL: QPVLTQPSSVSVAPGETARIPCGGDDIETKSVHWYQQKPGQAPVLVIYDDDDRPSGIPERFFGSNSGNTATLSISRVEAGDEADYYCQVWDDNNDEWVFGGGTQLTVL

Experiments:
human NKG2D = target: B2; test: printed as 'binding coefficients'; method not stated
[1] = target: OMCP (WT OMCPBR, cowpox virus Brighton Red) (cowpox virus (Brighton Red strain)); test: as above

| Binder | Kd (human NKG2D) [nM] | Kd [1] [nM] |
| --- | --- | --- |
| B1 | 6 | – |
| B2 | – | 0.1 |
| B3 | 27 | – |
